Blank lines part the entries; values can stand above or below the substance they belong to.
Experiments:
GroES^7I25A1 (E. coli) [1] = target: GroES^7I25A1 (E. coli)
GroES^7I25A1 (E. coli) [2] = target: GroES^7I25A1 (E. coli); remark: listed apart in the source
[3] = target: GroES^7I25A_(1,4,6) (E. coli); assay: MST; cochaperonin labelled with DyLight 650; unlabelled GroEL or GroEL^SR in a serial dilution of 15 samples; 50 mM TrisCl pH 7.5, 100 mM KCl, 10 mM MgCl2, 1 mM EDTA, 2 mM ADP, 0.5 mg/mL BSA; 30 min incubation
GroESL27A (E. coli) = GroESL27A (E. coli) (UniProt P0A6F9); assay: as above
GroESI25A (E. coli) = GroESI25A (E. coli) (UniProt P0A6F9); assay: as above
GroES^7I25A1,2 (E. coli) [4] = assay: as above
GroES^7I25A1,4 (E. coli) [5] = assay: as above
[6] = target: GroES^7I25A_(1,4,7) (E. coli); assay: as above
GroES^7I25A1,3 (E. coli) [7] = assay: as above
GroES^7I25D1,4 (E. coli) = assay: MST; cochaperonin labelled with DyLight 650, unlabelled GroEL or GroEL^SR titrated (serial dilution of 15 samples), 30 min incubation; 50 mM TrisCl pH 7.5, 100 mM KCl, 10 mM MgCl2, 1 mM EDTA, 2 mM ADP, 0.5 mg/mL BSA; Monolith NT115, 80% LED, 40% IR-laser
[8] = target: GroES^7I25D1,4,7 (E. coli); assay: as above
GroES^7I25D1,3 (E. coli) = assay: as above
[9] = target: GroES^7I25A_(1,4,6) (E. coli)
GroES^7I25A1 (E. coli) [10] = target: GroES^7I25A1 (E. coli); remark: listed apart in the source
GroES^7I25A1,2 (E. coli) [11] = target: GroES^7I25A1,2 (E. coli)
GroES^7I25A1,4 (E. coli) [12] = target: GroES^7I25A1,4 (E. coli)
[13] = target: GroES^7I25A_(1,4,7) (E. coli)
GroES^7I25A1,3 (E. coli) [14] = target: GroES^7I25A1,3 (E. coli)
GroES^7I25A1 (E. coli) [15] = assay: MST; cochaperonin labelled with DyLight 650; unlabelled GroEL or GroEL^SR in a serial dilution of 15 samples; 50 mM TrisCl pH 7.5, 100 mM KCl, 10 mM MgCl2, 1 mM EDTA, 2 mM ADP, 0.5 mg/mL BSA; 30 min incubation
GroES^7 (E. coli) [16] = assay: as above
GroES^7I25D1,2 (E. coli) = assay: MST; cochaperonin labelled with DyLight 650, unlabelled GroEL or GroEL^SR titrated (serial dilution of 15 samples), 30 min incubation; 50 mM TrisCl pH 7.5, 100 mM KCl, 10 mM MgCl2, 1 mM EDTA, 2 mM ADP, 0.5 mg/mL BSA; Monolith NT115, 80% LED, 40% IR-laser
GroES^7I25D1 (E. coli) = assay: as above
GroES^7 (E. coli) [17] = assay: as above
GroES^7I25A1,2 (E. coli) [18] = assay: as above
GroES^7I25A1,4 (E. coli) [19] = assay: as above
GroES^7I25A1,3 (E. coli) [20] = assay: as above

Sequence of GroEL (P0A6F5 whole entry): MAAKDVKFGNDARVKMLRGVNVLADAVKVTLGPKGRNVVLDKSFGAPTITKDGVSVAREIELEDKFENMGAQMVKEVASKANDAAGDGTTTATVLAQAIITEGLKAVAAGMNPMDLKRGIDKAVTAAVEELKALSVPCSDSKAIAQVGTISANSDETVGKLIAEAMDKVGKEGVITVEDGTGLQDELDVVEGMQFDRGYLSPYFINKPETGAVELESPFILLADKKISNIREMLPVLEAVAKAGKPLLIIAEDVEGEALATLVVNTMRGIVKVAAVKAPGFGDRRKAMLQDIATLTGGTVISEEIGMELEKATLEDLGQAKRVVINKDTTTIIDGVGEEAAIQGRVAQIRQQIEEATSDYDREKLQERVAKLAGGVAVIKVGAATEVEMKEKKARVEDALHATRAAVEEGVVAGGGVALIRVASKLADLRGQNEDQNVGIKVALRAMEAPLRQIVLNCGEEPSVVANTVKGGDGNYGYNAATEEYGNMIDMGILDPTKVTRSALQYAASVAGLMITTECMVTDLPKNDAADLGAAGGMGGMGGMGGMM

- yield of GroEL-mediated MDH folding (GroES^7I25A1 (E. coli) [1]): 72%
- ATPase activity of GroEL left in the presence of the variant (GroES^7I25A1 (E. coli) [2]): 53.2%
- fold reduction of affinity against GroES^7 [3]: > 25 fold
- Kd (GroESL27A (E. coli)): > 5 µM
- Kd (GroESI25A (E. coli)): > 5 µM
- fold reduction of affinity against GroES^7 (GroES^7I25A1,2 (E. coli) [4]): 2 fold
- fold reduction of affinity against GroES^7 (GroES^7I25A1,4 (E. coli) [5]): 2 fold
- fold reduction of affinity against GroES^7 [6]: > 25 fold
- fold reduction of affinity against GroES^7 (GroES^7I25A1,3 (E. coli) [7]): 2 fold
- Kd (GroES^7I25D1,4 (E. coli)): 0.00958 µM
- Kd [8]: 0.04 µM
- Kd (GroES^7I25D1,3 (E. coli)): 0.0133 µM
Substance: GroEL (from UniProt P0A6F5 1-548) (natural protein)

- inhibition of the ATPase of GroEL^SR [9]: 20%
- inhibition of the ATPase of GroEL^SR (GroES^7I25A1 (E. coli) [10]): 80%
- inhibition of the ATPase of GroEL^SR (GroES^7I25A1,2 (E. coli) [11]): 50%
- inhibition of the ATPase of GroEL^SR (GroES^7I25A1,4 (E. coli) [12]): 50%
- inhibition of the ATPase of GroEL^SR [13]: 20%
- inhibition of the ATPase of GroEL^SR (GroES^7I25A1,3 (E. coli) [14]): 50%
- Kd (GroES^7I25A1 (E. coli) [15]): 0.0085 µM
- Kd (GroES^7 (E. coli) [16]): 0.0037 µM
- fold reduction of affinity against GroES^7 (GroES^7I25A1,2 (E. coli) [4]): > 10 fold
- fold reduction of affinity against GroES^7 (GroES^7I25A1,4 (E. coli) [5]): > 10 fold
- fold reduction of affinity against GroES^7 (GroES^7I25A1,3 (E. coli) [7]): > 10 fold
- Kd (GroES^7I25D1,2 (E. coli)): 0.0387 µM
- Kd (GroES^7I25D1,4 (E. coli)): 0.0731 µM
- Kd (GroES^7I25D1 (E. coli)): 0.0256 µM
- Kd (GroES^7 (E. coli) [17]): 0.00454 µM
- Kd (GroES^7I25A1,2 (E. coli) [18]): 0.035 µM
- Kd (GroES^7I25D1,3 (E. coli)): 0.0719 µM
- Kd (GroES^7I25A1,4 (E. coli) [19]): 0.0513 µM
- Kd (GroES^7I25A1,3 (E. coli) [20]): 0.0397 µM
Substance: GroEL^SR (GroEL R452A/E461A/S463A/V464A) (from UniProt P0A6F5 1-548) (natural protein)

Source: article PMC5575113
